Our source for the Kd values is PMC10419011, “Dynamics of the Second Extracellular Loop Control Transducer Coupling of Peptide-Activated GPCRs” (International Journal of Molecular Sciences, 2023).

In this experiment the target is T1, K^18-TAMRA-NPY (5/6-tetramethylrhodamine (TAMRA) on the side chain of Lys18).
T1 construct: neuropeptide Y (NPY) with a TAMRA-carrying lysine at position 18; also called Tam-labeled NPY; TAMRA-labeled peptide ligand; source: synthetic peptide (Fmoc/tBu solid phase, RP-HPLC, purity > 95%)
Description: fluorescence polarisation; various concentrations of receptor in small DMPC/DHPC bicelles with 50 nM (K^18-TAMRA)-NPY, 1 h at room temperature, measured at 20 °C; sigmoidal dose-response fit. The following applies: both partners purified. For orientation: Polarisation of emitted light reports the rotation of a fluorescent probe.

B1: Y2R_A202^45.49C,Δ6Cys-IAP (A202^45.49-P1) (receptor)
chain: MGPIGAEADENQTVEEMKVEQYGPQTTPRGELVPDPEPELIDSTKLIEVQVVLILAYASIILLGVIGNSLVIHVVIKFKSMRTVTNFFIANLAVADLLVNTLALPFTLTYTLMGEWKMGPVLCHLVPYAQGLAVQVSTITLTVIALDRHRAIVYHLESKISKRISFLIIGLAWGISALLASPLAIFREYSLIEIIPDFEIVCCTEKWPGEEKSIYGTVYSLSSLLILYVLPLGIISFSYTRIWSKLKNHVSPGAANDHYHQRRQKTTKMLVSVVVVFAVSWLPLHAFQLAVDIDSQVLDLKEYKLIFTVFHIIAMASTFANPLLYGWMNSNYRKAFLSAFRSEQRLDAIHSEVSVTFKAKKNLEVRKNSGPNDSFTEATNV
modifications: cysteine at position 202 labelled with 3-(2-iodacetamido)-proxyl (IAP), thioether-bound spin label side chain P1
As a reminder, the Kd is the constant that tells how readily two partners part at equilibrium. High values mean weaker binding, low ones tighter binding. Turning to B1, the Kd was 81.8 ± 5.1 nM.
